Substitutions are numbered along the chain they refer to. Names may count otherwise.
B1: MYT6096 (antibody, V domains shown)
VH: QEQLEESGGDLVKPGASLTLTCTASGLDFRRTNYICWVRQAPGKGLEWIGCIYIAHVVHYYASWAKGRFTFSKTSSTTVTLQMTSLTAADTATYFCARGADGGFVYGMDLWGPGTLVTVSS
VL: DVVMTQTPASVSEPVGGTVTIKCQASQSIGNYLSWYQQKPGQRPKRLIYSASTLPSGVPSRFKGAGSGTEFTLTISDLESADAATYYCQNNYWLAGYGHPFGGGTEVVVK
notes: chimeric rabbit 15G7 variant (rabbit variable domains, human constant regions); also called 15G7 VH D56H
B2: MYT6097 (antibody, V domains shown)
VH: B1 VH with H56D, V57H
VL: B1 VL
notes: chimeric rabbit 15G7 variant (rabbit variable domains, human constant regions); also called 15G7 VH V57H
B3: MYT6098 (antibody, V domains shown)
VH: B1 VH with H56D, V58H
VL: B1 VL
notes: chimeric rabbit 15G7 variant (rabbit variable domains, human constant regions); also called 15G7 VH V58H
B4: MYT6099 (antibody, V domains shown)
VH: B1 VH with H56D, H59A
VL: B1 VL
notes: chimeric rabbit 15G7 variant (rabbit variable domains, human constant regions); also called 15G7 VH H59A
B5: MYT6100 (antibody, V domains shown)
VH: B1 VH with H56D, Y60H
VL: B1 VL
notes: chimeric rabbit 15G7 variant (rabbit variable domains, human constant regions); also called 15G7 VH Y60H
B6: MYT6101 (antibody, V domains shown)
VH: B1 VH with H56D, Y61H
VL: B1 VL
notes: chimeric rabbit 15G7 variant (rabbit variable domains, human constant regions); also called 15G7 VH Y61H
B7: MYT6103 (antibody, V domains shown)
VH: B1 VH with H56D, S63H
VL: B1 VL
notes: chimeric rabbit 15G7 variant (rabbit variable domains, human constant regions); also called 15G7 VH S63H
B8: MYT6105 (antibody, V domains shown)
VH: B1 VH with H56D, A65H
VL: B1 VL
notes: chimeric rabbit 15G7 variant (rabbit variable domains, human constant regions); also called 15G7 VH A65H
B9: MYT6106 (antibody, V domains shown)
VH: B1 VH with H56D, K66H
VL: B1 VL
notes: chimeric rabbit 15G7 variant (rabbit variable domains, human constant regions); also called 15G7 VH K66H
B10: MYT6107 (antibody, V domains shown)
VH: B1 VH with H56D, G67H
VL: B1 VL
notes: chimeric rabbit 15G7 variant (rabbit variable domains, human constant regions); also called 15G7 VH G67H
B11: MYT6108 (antibody, V domains shown)
VH: B1 VH with H56D, A97H
VL: B1 VL
notes: chimeric rabbit 15G7 variant (rabbit variable domains, human constant regions); also called 15G7 VH A97H
B12: MYT6109 (antibody, V domains shown)
VH: B1 VH with H56D, R98H
VL: B1 VL
notes: chimeric rabbit 15G7 variant (rabbit variable domains, human constant regions); also called 15G7 VH R98H
B13: MYT6110 (antibody, V domains shown)
VH: B1 VH with H56D, G99H
VL: B1 VL
notes: chimeric rabbit 15G7 variant (rabbit variable domains, human constant regions); also called 15G7 VH G99H
B14: MYT9684 (antibody, V domains shown)
VH: EVQLVESGGGLVQPGGSLRLSCTASEFSFSSSHWICWVRQAPGKGLEWVGCIYAGSIGSTYYASWAKGRFTISRDTSKNTVYLQMNSLRAEDTAVYYCARAPNDIYNYYFNLWGQGTLVTVSS
VL: EIVMTQSPSTLSASVGDRVIITCQASENIYNYLAWYQQKPGKAPKLLIYYASTLASGVPSRFSGSGSGAEFTLTISSLQPDDFATYYCQSGYVSKSSTFGQGTKLTVL
notes: also called hu29F1 VH G26E
B15: MYT9685 (antibody, V domains shown)
VH: B14 VH with E26G, F27E
VL: B14 VL
notes: also called hu29F1 VH F27E
B16: MYT9686 (antibody, V domains shown)
VH: B14 VH with E26G, S28E
VL: B14 VL
notes: also called hu29F1 VH S28E
B17: MYT9688 (antibody, V domains shown)
VH: B14 VH with E26G, S30E
VL: B14 VL
notes: also called hu29F1 VH S30E
B18: MYT9689 (antibody, V domains shown)
VH: B14 VH with E26G, S31E
VL: B14 VL
notes: also called hu29F1 VH S31E
B19: MYT9690 (antibody, V domains shown)
VH: B14 VH with E26G, S32E
VL: B14 VL
notes: also called hu29F1 VH S32E
B20: MYT9691 (antibody, V domains shown)
VH: B14 VH with E26G, H33E
VL: B14 VL
notes: also called hu29F1 VH H33E
B21: MYT9693 (antibody, V domains shown)
VH: B14 VH with E26G, I35E
VL: B14 VL
notes: also called hu29F1 VH I35E
B22: MYT9696 (antibody, V domains shown)
VH: B14 VH with E26G, I52E
VL: B14 VL
notes: also called hu29F1 VH I52E
B23: MYT9699 (antibody, V domains shown)
VH: B14 VH with E26G, G55E
VL: B14 VL
notes: also called hu29F1 VH G55E
B24: MYT9701 (antibody, V domains shown)
VH: B14 VH with E26G, I57E
VL: B14 VL
notes: also called hu29F1 VH I57E
B25: MYT9702 (antibody, V domains shown)
VH: B14 VH with E26G, G58E
VL: B14 VL
notes: also called hu29F1 VH G58E
B26: MYT9703 (antibody, V domains shown)
VH: B14 VH with E26G, S59E
VL: B14 VL
notes: Humanized 29F1 VH glutamate variant; also called hu29F1 VH S59E
B27: MYT9704 (antibody, V domains shown)
VH: B14 VH with E26G, T60E
VL: B14 VL
notes: also called hu29F1 VH T60E
B28: MYT9705 (antibody, V domains shown)
VH: B14 VH with E26G, Y61E
VL: B14 VL
notes: also called hu29F1 VH Y61E

How the values were obtained:
[1] = target: T1, Human LRRC15 Protein, His Tag (Acro Biosystems) (human, UniProt Q8TF66 22-538, limits assumed); assay: BLI; dissociation pH 7.4 black, pH 5.4 grey [1/2); D00006 FIG. 1E (1/2]
T1 sequence (looked up): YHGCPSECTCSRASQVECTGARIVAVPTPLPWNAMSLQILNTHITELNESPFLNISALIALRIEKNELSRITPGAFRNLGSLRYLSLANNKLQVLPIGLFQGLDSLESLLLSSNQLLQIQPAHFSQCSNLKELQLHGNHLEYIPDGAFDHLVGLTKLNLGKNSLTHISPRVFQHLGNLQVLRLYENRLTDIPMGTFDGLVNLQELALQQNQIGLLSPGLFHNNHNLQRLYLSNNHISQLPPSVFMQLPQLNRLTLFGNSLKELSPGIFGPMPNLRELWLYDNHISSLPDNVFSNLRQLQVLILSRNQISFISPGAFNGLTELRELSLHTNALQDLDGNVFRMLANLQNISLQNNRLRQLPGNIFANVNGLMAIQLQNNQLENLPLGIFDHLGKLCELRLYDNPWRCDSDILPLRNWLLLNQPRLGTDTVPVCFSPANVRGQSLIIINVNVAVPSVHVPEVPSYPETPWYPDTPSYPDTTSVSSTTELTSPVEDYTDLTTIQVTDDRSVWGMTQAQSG
From the text: For each individual plot, antigen binding proteins were captured on anti-human Fc biosensors and associated with LRRC15 at pH 7.4. Dissociation was at pH 7.4 (black) or pH 5.4 (grey). Major X-axis ticks=100 seconds, with left dashed vertical line=0 seconds. Major Y-axis ticks=0.5 nm and octet plots are shown MYT5712 and MYT6080-MYT6121.
Multiple LRRC15-binding monoclonal antibodies have been described in the literature and can be used as a template for engineering pH-dependent binding. We selected discovery RabMAb clone 15G7 (rabbit VH SEQ ID NO: 378, rabbit VL SEQ ID NO: 451; humanized VH SEQ ID NO: 382, humanized VL SEQ ID NO: 455) as a LRRC15-binding monoclonal antibody for pH-engineering via histidine scanning. […] To generate pH-dependent sequence variants, individual amino acid residues within the heavy chain CDRs were systematically substituted with a histidine (or alanine if H was already present in a given position; e.g., MYT6099), one at a time (rabbit, MYT6080-6121). Desirable mutations were transferred to a humanized framework (humanized, MYT 8387-8411). After allowing for four days of protein expression, cell culture supernatants were collected, quantified by SDS-PAGE analysis, and the pH dependence of the variant was evaluated using biolayer interferometry (BLI) on an Octet RED 96e instrument. Briefly, cell culture supernatants were diluted based on qualitative expression level of the variant determined by visual examination of SDS-PAGE gels, 5 μL of cell culture supernatant was diluted into 195 μL of 1×PBST, pH 7.4 for high expressors, 25 μL of cell culture supernatant was diluted into 175 μL of 1×PBST, pH 7.4 for medium expressors and 100 μL of cell culture supernatant was diluted into 100 μL of 1×PBST, pH 7.4 for low expressors for loading onto the sensor tips.

[2] = target: T2, Human LRRC15 Protein, His Tag (Acro Biosystems) (human, UniProt Q8TF66 22-538, limits assumed); assay: BLI; dissociation pH 7.4 black, pH 5.4 grey [1/2); D00025 FIG. 6B (1/2]
T2 construct: not shown: His tag
T2 sequence (looked up): T1 sequence (looked up)
Experimental: Desirable mutations were transferred to a humanized framework (humanized, MYT 8387-8411). After allowing for four days of protein expression, cell culture supernatants were collected, quantified by SDS-PAGE analysis, and the pH dependence of the variant was evaluated using biolayer interferometry (BLI) on an Octet RED 96e instrument. Briefly, cell culture supernatants were diluted based on qualitative expression level of the variant determined by visual examination of SDS-PAGE gels, 5 μL of cell culture supernatant was diluted into 195 μL of 1×PBST, pH 7.4 for high expressors, 25 μL of cell culture supernatant was diluted into 175 μL of 1×PBST, pH 7.4 for medium expressors and 100 μL of cell culture supernatant was diluted into 100 μL of 1×PBST, pH 7.4 for low expressors for loading onto the sensor tips. The resulting diluted supernatants were then captured on an anti-human Fc sensor (Forte Bio). A baseline was established using 1×PBST (50 mM Potassium Phosphate Buffer+150 mM NaCl+0.05% Tween 20) pH 7.4, and the […] was associated with 50 nM of LRRC15 (Human LRRC15 Protein, His Tag, Acro Biosystems) in 1×PBST pH 7.4 for 120 sec to generate an association curve. In the dissociation phase, the antibody-antigen complex on the sensor was exposed to 1×PBST pH 7.4 or pH 5.4, for 300 sec. Association and dissociation phase curves were examined for the starting ABPC antibody (with no substitutions) and each corresponding antibody variant at pH 5.4 and pH 7.4 to inform on two criteria: a) enhanced dissociation (i.e., higher koff values) at pH 5.4 due to histidine substitution compared to the starting ABPC, (with no substitutions), and b) reduced dissociation at pH 7.4 (i.e., lower koff values) compared to pH 5.4 in the antibody variant itself and with the starting ABPC (with no substitutions).
The methods of Examples 9-10 were applied to RabMAb clone 29F1 (rabbit VH SEQ ID NO: 572 and VL SEQ ID NO: 578; and humanized VH SEQ ID NO: 576 and VL SEQ ID NO: 582).

| Binder | binding result [1] | binding result [2] |
| --- | --- | --- |
| B1 | binds |  |
| B2 | binds |  |
| B3 | binds |  |
| B4 | binds |  |
| B5 | binds |  |
| B6 | binds |  |
| B7 | binds |  |
| B8 | binds |  |
| B9 | binds |  |
| B10 | binds |  |
| B11 | binds |  |
| B12 | binds |  |
| B13 | binds |  |
| B14 |  | binds |
| B15 |  | binds |
| B16 |  | binds |
| B17 |  | binds |
| B18 |  | binds |
| B19 |  | binds |
| B20 |  | binds |
| B21 |  | binds |
| B22 |  | binds |
| B23 |  | binds |
| B24 |  | binds |
| B25 |  | binds |
| B26 |  | binds |
| B27 |  | binds |
| B28 |  | binds |

From patent publication US20250352661A1 (MYTHIC THERAPEUTICS, published 2025)
